Measured values from article PMC2275143 (Nucleic Acids Research, 2008).

Target: the molecule itself
Assay: AUC

B1: Nep1 from Methanocaldococcus jannaschii (native protein) (enzyme, UniProt Q57977 2-205, looked up)
chain: TYNIILAKSALELIPEEIKNKIRKSRVYKYDILDSNYHYKAMEKLKDKEMRGRPDIIHISLLNILDSPINHEKKLNIYIHTYDDKVLKINPETRLPRNYFRFLGVMEKVLKGERNHLIKMEEKTLEDLLNEINAKKIAIMTKTGKLTHPKLLKEYDTFIIGGFPYGKLKINKEKVFGDIKEISIYNKGLMAWTVCGIICYSLSF
stoichiometry N: 2
